Results reported in EP3470426A1 (Numab Therapeutics AG, dated 2019).
Where “and” joins values, the source holds several entries; their conditions need not be identical. Equal values may be shown once. Read-outs that look alike come from different tables or passages of the source.

Legend:
Test in all cases: cell-based or functional assay
[1] = target: T1, CD137 on Jurkat NFkB reporter cells (human, UniProt Q07011 24-255)
[2] = target: T1, CD137 on Jurkat NFkB reporter cells; remark: listed apart in the source
[3] = target: T1, CD137 on Jurkat NFkB reporter cells; remark: listed apart in the source
[4] = target: T1, CD137 on Jurkat NFkB reporter cells; remark: listed apart in the source
[5] = target: T1, CD137 on Jurkat NFkB reporter cells; remark: listed apart in the source
[6] = target: T1, CD137 on Jurkat NFkB reporter cells; remark: listed apart in the source
[7] = target: T1, CD137 on Jurkat NFkB reporter cells; remark: listed apart in the source
human PD-L1 on cells [8] = target: T2, human PD-L1 on cells (human, UniProt Q9NZQ7 19-290)
[9] = target: T1, CD137 on Jurkat NFkB reporter cells; remark: listed apart in the source
human PD-L1 on cells [10] = target: T2, human PD-L1 on cells; remark: listed apart in the source

Binder	EC50, NFkB-luciferase reporter, HCC827 with IFNy stimulation, 24h [1]	EC50, NFkB-luciferase reporter, HCC827 without IFNy stimulation, 24h [1]	EC50, NFkB-luciferase reporter, CHO-PD-L1 cells [2]	EC50, NFkB-luciferase reporter, HCC827 cells stimulated with IFNg [3]	EC50, NFkB-luciferase reporter, PD-L1 expressing CHO cells, 24h [4]	EC50, NFkB-luciferase reporter, PD-L1 expressing CHO cells, 24h, + HSA [4]	EC50, NFkB-luciferase reporter, PD-L1 expressing CHO cells, 6h [5]	EC50, NFkB-luciferase reporter, PD-L1 expressing CHO cells, 6h, + HSA [5]	EC50, NFkB-luciferase reporter, HCC827 cells without IFNg [6]	EC50, NFkB-luciferase reporter, CHO-PD-L1 cells [7]	IC50, NFAT-luciferase reporter gene assay (human PD-L1 on cells [8])	max. activation (%), NF-kB reporter, CHO-PD-L1 [9]	max. activation (%), NF-kB reporter, HCC827 +IFNg [9]	max. activation (%), NF-kB reporter, HCC827 -IFNg [9]	IC50, NFAT-luciferase reporter gene assay (human PD-L1 on cells [10])	fold improvement of neutralization potency against PRO885, NFAT reporter (human PD-L1 on cells [10])
Urelumab (antibody, V domains shown) VH: QVQLQQWGAGLLKPSETLSLTCAVYGGSFSGYYWSWIRQSPEKGLEWIGEINHGGYVTYNPSLESRVTISVDTSKNQFSLKLSSVTAADTAVYYCARDYGPGNYDWYFDLWGRGTLVTVSS VL: EIVLTQSPATLSLSPGERATLSCRASQSVSSYLAWYQQKPGQAPRLLIYDASNRATGIPARFSGSGSGTDFTLTISSLEPEDFAVYYCQQRSNWPPALTFGGGTKVEIK	0.0528 µg/mL	0.0475 µg/mL	0.0791 µg/mL	0.114 µg/mL and 0.145 µg/mL and 0.108 µg/mL	0.0466 µg/mL	0.0782 µg/mL	0.0565 µg/mL	0.0777 µg/mL	0.212 µg/mL and 0.11 µg/mL and 0.112 µg/mL	0.0795 µg/mL and 0.104 µg/mL and 0.0865 µg/mL						
PRO951 (bispecific antibody) DIQMTQSPSSLSASVGDRVTITCQASQSINDYLAWYQQKPGKAPKLLIYKASTLASGVPSRFSGSGSGTDFTLTISSLQPEDFATYYCQQGYIITDIDNVFGTGTKVTVLGGGGGSEVQLVESGGGLVQPGGSLRLSCAASGFSFNNDYDMCWVRQAPGKGLEWIGCIDTGDGSTYYASWAKGRFTISRDNSKNTVYLQMNSLRAEDTAVYYCAREAASSSGYGMGYFDLWGQGTLVTVSSGGGGSGGGGSGGGGSGGGGSIQMTQSPSSLSASVGDRVTITCQSSQSVYDNNWLAWYQQKPGKAPKLLIYRASNLASGVPSRFSGSGSGTDFTLTISSLQPEDFATYYCQGTYLSSNWYWAFGTGTKVTVLGGGGGSQVQLQESGPGLVKPSETLSLTCKVSGFSFSSGYDMCWIRQPPGKGLEWIGCVVAGSVDITYYASWAKGRVTISVDSSKNQFSLKLSSVTAADTAVYYCARKDAYSDAFNLWGQGTLVTVSS			0.0337 µg/mL								0.0885 µg/mL	432%				
PRO1123 (bispecific antibody) DIQMTQSPSSLSASVGDRVTITCQASQSINDYLAWYQQKPGKAPKLLIYKASTLASGVPSRFSGSGSGTDFTLTISSLQPEDFATYYCQQGYIITDIDNVFGTGTKVTVLGGGGGSQVQLQESGPGLVKPSETLSLTCKVSGFSFSNSYWICWVRQPPGKGLEWIGCTFVGSSDSTYYANWAKGRVTISVDSSKNQVSLKLSSVTAADTAVYFCARHPSDAVYGYANNLWGQGTLVTVSSGGGGSGGGGSGGGGSGGGGSIQMTQSPSSLSASVGDRVTITCQASQSINNVLAWYQQKPGKPPKLLIYRASTLASGVPSRFSGSGSGTDFTLTISSLQPEDFATYYCQSSYGNYGDFGTGTKVTVLGGGGGSQVQLQESGPGLVKPSETLSLTCKVSGFSFSSGYDMCWIRQPPGKGLEWIGCVVAGSVDITYYASWAKGRVTISVDSSKNQFSLKLSSVTAADTAVYYCARKDAYSDAFNLWGQGTLVTVSS				0.0119 µg/mL					0.0161 µg/mL	0.00575 µg/mL		219%	154%	123%		
PRO1124 (bispecific antibody) DIQMTQSPSSLSASVGDRVTITCQASQSINDYLAWYQQKPGKAPKLLIYKASTLASGVPSRFSGSGSGTDFTLTISSLQPEDFATYYCQQGYIITDIDNVFGTGTKVTVLGGGGGSQVQLQESGPGLVKPSETLSLTCKASGFSFSNSYWICWVRQPPGKGLEWIGCTFVGSSDSTYYANWAKGRVTISKDSSKNQVSLKLSSVTAADTAVYFCARHPSDAVYGYANNLWGQGTLVTVSSGGGGSGGGGSGGGGSGGGGSLQMTQSPSSLSASVGDRVTITCQASQSINNVLAWYQQKPGKPPKLLIYRASTLASGVPSRFSGSGSGTDFTLTISSLQPEDFATYYCQSSYGNYGDFGTGTKVTVLGGGGGSQVQLQESGPGLVKPSETLSLTCKVSGFSFSSGYDMCWIRQPPGKGLEWIGCVVAGSVDITYYASWAKGRVTISVDSSKNQFSLKLSSVTAADTAVYYCARKDAYSDAFNLWGQGTLVTVSS				0.00483 µg/mL					0.00562 µg/mL	0.00368 µg/mL		229%	188%	113%		
PRO1126 (bispecific antibody) DFQLTQSPSSLSASVGDRVTITCQASQSINDYLAWYQQKPGKSPKLLIYKASTLASGVPSRFSGSGSGTDFTLTISSLQPEDFATYYCQQGYIITDIDNVFGTGTKVTVLGGGGGSQVQLQESGPGLVKPSETLSLTCKVSGFSFSNSYWICWIRQPPGKGLEWIGCTFVGSSDSTYYANWAKGRVTISVDSSKNQFSLKLSSVTAADTAVYYCARHPSDAVYGYANNLWGQGTLVTVSSGGGGSGGGGSGGGGSGGGGSIQMTQSPSSLSASVGDRVTITCQASQSINNVLAWYQQKPGKAPKLLIYRASTLASGVPSRFSGSGSGTDFTLTISSLQPEDFATYYCQSSYGNYGDFGTGTKVTVLGGGGGSQSQLQESGPGLVKPSETLSLTCKASGFSFSSGYDMCWVRQPPGKGLEWIACVVAGSVDITYYASWAKGRVTISKDSSKNQVSLKLSSVTAADTAVYFCARKDAYSDAFNLWGQGTLVTVSS				0.00548 µg/mL					0.00697 µg/mL	0.006 µg/mL		242%	208%	135%	0.0481 µg/mL	3 fold
